Drawing on paper PMC8124189, “Detection of the First Epoxyalcohol Synthase/Allene Oxide Synthase (CYP74 Clan) in the Lancelet (Branchiostoma belcheri, Chordata)” (International Journal of Molecular Sciences, 2021), this text covers Km, kcat and kcat/Km for one protein.

What all share (test): purified protein
Holding throughout (type): biochemical, Branchiostoma belcheri
What all share (conditions): Na phosphate buffer (pH range 6.0-8.0 stated; optimum pH 7.0), 25 °C, substrate 5-150 μM

Substrate in series [1]: CC/C=C\C/C=C\C=C\[C@H](CCCCCCCC(=O)O)OO
Substrate in series [2]: CCCCC/C=C\C=C\[C@H](CCCCCCCC(=O)O)OO
Substrate in series [3]: CC/C=C\C[C@@H](/C=C/C=C\CCCCCCCC(=O)O)OO
Substrate in series [4]: CCCCC[C@@H](/C=C/C=C\CCCCCCCC(=O)O)OO

B1: CYP440A18 (BbEAS/AOS) (Branchiostoma belcheri) (protein)
chain: MGNAIGYLKWLGQGKQAFAPDRKEDFVETNIGFPCRVVTGNKAVQSVFDIDLFKKEEFFFGLIEIRKEFTEGVCPSVTSNGKIHEKNKALMMDVIAGAYEEIPTSTADAVLSNIATWGSTPTDFESKLMAVSAGIFLPTIFGRSTRFNPEDVNLYVKGATELRSDILAAVTREDLTETRRGMRSVLEKIKTSERYSQLIDLGRSHGLDEASTTGQLLFCVMFNAVGGTATNLVATFGRLDTISAEDRQELREEALAALRKHGGLTRAALEEMPKIESFVLEVLRTCPSPGVWSHIAARPTTVKYTTASGPKEVNIKEGERVYASPYWALRDPAVFDKPDDFVWRRFLGPEGEALREHHVTFHGRLTDSAAVNNHMCPGRDVALSVIKGSIAILNTFFGWELQERPFWTGTKVSRIGQPDNVVKVKSFWLQHPDDLKEIFPSHFEEIHDSLNSAVLQCP
notes: full-length, 458 aa; codon-adapted synthetic gene in pET-23a; C-terminal His tag; E. coli BL21(DE3)pLysS; IMAC purified
The term Km denotes the concentration of substrate that gives half-maximal velocity. In general, kcat refers to the number of substrate molecules converted per active site and unit of time at saturation. A word on the kcat/Km: it is the second-order rate constant that governs catalysis at low substrate concentration. Take B1: the Km in series [1] worked out at 31.8 µM; in series [2], 37.0 µM; in series [3], 17.6 µM; in series [4] it was 18.6 µM. Moreover, the catalytic constant (kcat) in series [1] was 248 s⁻¹; in series [2], 164 s⁻¹; in series [3] it was 432 s⁻¹; in series [4], 174 s⁻¹. In addition, the specificity constant (kcat/Km) in series [1] is 7.8e+06 M⁻¹ s⁻¹; in series [2] it was 4.4e+06 M⁻¹ s⁻¹; in series [3], 2.45e+07 M⁻¹ s⁻¹; in series [4], 9.4e+06 M⁻¹ s⁻¹.
